From patent US20230203146A1 (Boehringer Ingelheim, published 2023)
Substitutions are numbered along the chain they refer to. Where two headings read alike, the source gives them in different places. Values belong to the binder of their own block, whether it stands above or below them.

Tests used:
[1] = target: T1, recombinant mouse Ang2-FLD (mouse, UniProt O35608 275-496, limits assumed); experiment: SPR (Biacore T100), binder on CM5 chip, Ang2-FLD as analyte
T1 construct: domain: FLD
T1 sequence (looked up): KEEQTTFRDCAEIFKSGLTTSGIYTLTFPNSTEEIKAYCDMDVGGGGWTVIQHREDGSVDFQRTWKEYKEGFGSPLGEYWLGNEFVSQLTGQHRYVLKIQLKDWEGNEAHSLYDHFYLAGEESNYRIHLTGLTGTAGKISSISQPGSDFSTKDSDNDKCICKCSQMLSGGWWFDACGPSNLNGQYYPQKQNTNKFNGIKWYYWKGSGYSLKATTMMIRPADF
Description: (§1) In brief, VHH and benchmark compounds are immobilized on a CM5 chip via amine coupling. […] Ang2-FLD species are allowed to associate for 2 min and to dissociate for 20 min at a flow rate of 45 μL/min. In between injections, the surfaces are regenerated with a 10 sec pulse of 25 mM NaOH and 60 sec stabilization period. Association/dissociation data are evaluated by fitting a 1:1 interaction model (Langmuir binding). The affinity constant KD is calculated from resulting association and dissociation rate constants kₐ and kd and are depicted in Table 8.

[2] = target: T2, recombinant cynomolgus Ang2-FLD (cynomolgus); experiment: as above
T2 construct: domain: FLD; also called cyno Ang2-FLD
Description: as §1

[3] = target: T3, recombinant human Ang2-FLD (human, UniProt O15123 275-496, limits assumed); experiment: as above
T3 construct: domain: FLD; not used
T3 sequence (looked up): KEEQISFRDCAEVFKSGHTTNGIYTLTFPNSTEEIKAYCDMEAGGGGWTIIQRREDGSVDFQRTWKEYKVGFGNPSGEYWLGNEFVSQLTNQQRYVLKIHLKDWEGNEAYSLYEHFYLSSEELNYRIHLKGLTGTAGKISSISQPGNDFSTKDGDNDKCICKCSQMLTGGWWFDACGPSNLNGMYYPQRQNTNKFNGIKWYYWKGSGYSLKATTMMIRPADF
Description: as §1

[4] = target: T4, N-terminally FLAG-tagged cynomolgus Ang2 (HEK293T conditioned medium) (cynomolgus, UniProt O15123 19-496 (human entry), limits assumed); experiment: competition ELISA, FLAG-cAng2 on coated cTie2-Fc
T4 construct: may be a nucleotide entry; also called cAng2; FLAG-cAng2
T4 chain: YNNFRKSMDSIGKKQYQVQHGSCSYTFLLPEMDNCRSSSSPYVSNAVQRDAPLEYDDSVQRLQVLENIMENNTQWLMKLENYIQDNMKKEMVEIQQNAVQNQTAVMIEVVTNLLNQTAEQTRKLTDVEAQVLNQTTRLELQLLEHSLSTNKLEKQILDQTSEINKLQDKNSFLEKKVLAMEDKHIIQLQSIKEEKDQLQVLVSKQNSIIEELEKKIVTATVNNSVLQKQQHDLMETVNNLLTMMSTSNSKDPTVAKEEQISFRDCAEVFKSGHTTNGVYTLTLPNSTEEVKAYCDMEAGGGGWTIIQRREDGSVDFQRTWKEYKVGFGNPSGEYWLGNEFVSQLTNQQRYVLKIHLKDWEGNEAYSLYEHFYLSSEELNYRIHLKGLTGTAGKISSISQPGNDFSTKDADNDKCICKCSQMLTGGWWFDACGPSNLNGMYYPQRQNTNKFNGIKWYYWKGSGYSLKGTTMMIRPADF
Description: (§2) In brief, 2 μg/mL of recombinant mouse Tie2-Fc or cyno Tie2-Fc is coated overnight at 4° C. in a 96-well MaxiSorp plate (Nunc, Wiesbaden, Germany). Coated wells are blocked with a 1% casein solution.

[5] = target: T5, N-terminally FLAG-tagged mouse Ang2 (HEK293T conditioned medium) (mouse, UniProt O35608 19-496); experiment: competition ELISA, FLAG-mAng2 on coated mTie2-Fc
T5 construct: may be a nucleotide entry; also called mAng2; FLAG-mAng2
T5 sequence: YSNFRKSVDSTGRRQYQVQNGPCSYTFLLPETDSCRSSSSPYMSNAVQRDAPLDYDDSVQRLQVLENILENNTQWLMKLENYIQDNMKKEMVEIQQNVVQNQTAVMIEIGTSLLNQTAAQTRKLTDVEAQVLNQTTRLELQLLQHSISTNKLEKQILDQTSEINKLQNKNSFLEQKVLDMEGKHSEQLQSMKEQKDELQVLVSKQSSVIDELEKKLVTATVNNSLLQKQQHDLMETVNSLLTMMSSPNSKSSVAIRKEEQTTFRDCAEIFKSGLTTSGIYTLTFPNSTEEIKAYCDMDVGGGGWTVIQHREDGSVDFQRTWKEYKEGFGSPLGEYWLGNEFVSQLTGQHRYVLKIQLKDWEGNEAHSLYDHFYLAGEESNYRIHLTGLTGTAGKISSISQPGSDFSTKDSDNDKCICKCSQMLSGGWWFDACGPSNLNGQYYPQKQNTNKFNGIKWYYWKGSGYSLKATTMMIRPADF
Description: as §2

[6] = target: T5, N-terminally FLAG-tagged mouse Ang2 …; experiment: competition ELISA, FLAG-mAng2 on coated mTie2-Fc; remark: listed apart in the source
Description: as §2

[7] = target: T6, FLAG-tagged recombinant human Ang1 (Alexis Biochemicals) (human, UniProt Q15389 20-498, limits assumed); experiment: ratio of IC50 in hAng1/hTie2 ELISA to IC50 in hAng2/hTie2 ELISA
T6 construct: Bought reagent; also called hAng1; FLAG-hAng1
T6 sequence (looked up): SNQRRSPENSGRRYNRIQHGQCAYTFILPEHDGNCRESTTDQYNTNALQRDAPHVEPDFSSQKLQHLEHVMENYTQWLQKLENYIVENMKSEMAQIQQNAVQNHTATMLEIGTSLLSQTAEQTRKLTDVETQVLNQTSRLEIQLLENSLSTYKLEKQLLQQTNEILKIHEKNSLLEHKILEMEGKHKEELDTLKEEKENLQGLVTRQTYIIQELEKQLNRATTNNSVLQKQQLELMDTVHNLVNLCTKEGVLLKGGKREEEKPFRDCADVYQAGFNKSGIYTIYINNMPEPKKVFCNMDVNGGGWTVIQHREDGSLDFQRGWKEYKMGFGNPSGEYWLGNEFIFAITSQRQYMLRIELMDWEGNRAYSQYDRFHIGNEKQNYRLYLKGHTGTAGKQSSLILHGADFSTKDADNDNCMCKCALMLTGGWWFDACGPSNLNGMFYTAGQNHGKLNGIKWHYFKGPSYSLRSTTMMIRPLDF
Description: In brief, 2 μg/mL of Tie2/Fc chimera (R&D Systems, Minneapolis, Minn., USA) is coated in a 96-well MaxiSorp plate (Nunc, Wiesbaden, Germany).
In brief, 2 μg/mL of recombinant human Tie2-Fc (R&D Systems, Minneapolis, Minn., USA) is coated overnight at 4° C. in a 96-well MaxiSorp plate (Nunc, Wiesbaden, Germany). Coated wells are blocked with a 1% casein solution.

FLAG-tagged mouse Ang2 = target: T7, FLAG-tagged mouse Ang2 (mouse, UniProt O35608 19-496); experiment: competition ELISA: FLAG-mAng2 binding to coated mTie2-Fc
T7 construct: N-terminally FLAG-tagged, conditioned medium of HEK293T cells; also called mAng2; FLAG-mAng2
T7 sequence: T5 sequence
Description: as §2

[8] = target: T8, FLAG-tagged cynomolgus Ang2 (cynomolgus, UniProt O15123 19-496 (human entry), limits assumed); experiment: competition ELISA: FLAG-cAng2 binding to coated cTie2-Fc
T8 construct: N-terminally FLAG-tagged, conditioned medium of HEK293T cells; also called cAng2; FLAG-cAng2
T8 chain: T4 chain
Description: as §2

[9] = target: T9, recombinant cynomolgus Ang2-FLD (cynomolgus, UniProt A0A2K5VNX6 275-496); experiment: SPR (Biacore T100), VHH immobilized, Ang2-FLD injected
T9 construct: domain: FLD; also called cyno Ang2-FLD
T9 sequence: T3 sequence (looked up) with E2G, I23V, F28L, I35V, G154A, A212G, D221G

[10] = target: T10, recombinant human Ang2-FLD (human, UniProt O15123 275-496, limits assumed); experiment: as above
T10 construct: domain: FLD
T10 sequence (looked up): T3 sequence (looked up)

[11] = target: T11, recombinant mouse Ang2-FLD (mouse, UniProt O35608 275-496, limits assumed); experiment: as above
T11 construct: domain: FLD
T11 sequence (looked up): T1 sequence (looked up)

recombinant rat Ang2-FLD = target: T12, recombinant rat Ang2-FLD (rat, UniProt O35462 275-496, limits assumed); experiment: as above
T12 construct: domain: FLD
T12 sequence (looked up): T1 sequence (looked up) with Q4K, I35V, V43M, G91S, Q92G, N107S, D114E, A119S, S168T

B1: VHH 7G08 (VHH)
VHH: EVQLVESGGGLVQPGGSLRLSCAASGFALDYYAIGWFRQVPGKEREGVSCISSSDGITYYVDSVKGRFTISRDNAKNTVYLQMNSLKPEDTAVYYCATDSGGYIDYDCMGLGYDYWGQGTQVTVSS
notes: also called 007G08; not shown: C-terminal c-myc tag and His6 tag
Kd [1]: 0.18 nM
koff [1]: 0.00014 s⁻¹
kon [1]: 810000 M⁻¹ s⁻¹
Kd [2]: 0.072 nM
koff [2]: 0.00011 s⁻¹
kon [2]: 1.5e+06 M⁻¹ s⁻¹
Kd [3]: 0.097 nM
koff [3]: 0.0001 s⁻¹
kon [3]: 1e+06 M⁻¹ s⁻¹
IC50 [4]: 0.14 nM
IC50 [5]: 0.07 nM
IC50 [6]: 0.09 nM
hAng1/hAng2 ratio [7]: > 2.33e+06

B4: VHH 00956 (VHH, not shown: small tags and cut ends)
VHH: EVQLVESGGGLVQPGGSLRLSCAASGFTLDDYAIGWFRQAPGKEREGVSAIRSSGGSTYYADSVKGRFTISSDNSKNTVYLQMNSLRPEDTAVYYCAAVPAGRLRFGEQWYPLYEYDAWGQGTLVTVSS
IC50 (FLAG-tagged mouse Ang2): 2.2 nM
IC50 [8]: 0.83 nM
Kd [9]: 0.72 nM
koff [9]: 0.0013 s⁻¹
kon [9]: 1.7e+06 M⁻¹ s⁻¹
Kd [10]: 1.2 nM
koff [10]: 0.0015 s⁻¹
kon [10]: 1.3e+06 M⁻¹ s⁻¹
Kd [11]: 4 nM
koff [11]: 0.0039 s⁻¹
kon [11]: 980000 M⁻¹ s⁻¹
Kd (recombinant rat Ang2-FLD): 13 nM
koff (recombinant rat Ang2-FLD): 0.0052 s⁻¹
kon (recombinant rat Ang2-FLD): 420000 M⁻¹ s⁻¹

B6: VHH 1D01 (VHH)
VHH: EVQLVESGGGLVQAGGSLRLSCAASGFTFDDYALGWFRQAAGKEREGVSCIRCSDGSTYYADSVKGRFTISSDNAKNTVYLQMNSLKPEDTAVYYCAASIVPRSKLEPYEYDAWGQGTQVTVSS
notes: also called 001D01; not shown: C-terminal c-myc tag and His6 tag
Kd [1]: 4.6 nM
koff [1]: 0.015 s⁻¹
kon [1]: 3.3e+06 M⁻¹ s⁻¹
Kd [2]: 1.4 nM
koff [2]: 0.014 s⁻¹
kon [2]: 9.9e+06 M⁻¹ s⁻¹
Kd [3]: 2 nM
koff [3]: 0.015 s⁻¹
kon [3]: 7.7e+06 M⁻¹ s⁻¹
IC50 [4]: 16.4 nM
IC50 [5]: 10 nM
IC50 [6]: 6.3 nM
hAng1/hAng2 ratio [7]: > 10800

The remaining lines, values ahead:

IC50 [4]: 0.1 nM
IC50 [5]: 0.09 nM
hAng1/hAng2 ratio [7]: > 100000
B2: VHH 37F02 (VHH)
VHH: B1 VHH with V40A
notes: also called 037F02; not shown: C-terminal c-myc tag and His6 tag

IC50 [4]: 0.2 nM
IC50 [5]: 0.1 nM
hAng1/hAng2 ratio [7]: > 100000
B3: VHH 37A09 (VHH)
VHH: B1 VHH with V5M, E89G
notes: also called 037A09; not shown: C-terminal c-myc tag and His6 tag

IC50 (FLAG-tagged mouse Ang2): 0.055 nM
IC50 [8]: 0.091 nM
Kd [9]: 0.0087 nM
koff [9]: 2.2e-05 s⁻¹
kon [9]: 2.6e+06 M⁻¹ s⁻¹
Kd [10]: 0.017 nM
koff [10]: 2.8e-05 s⁻¹
kon [10]: 1.6e+06 M⁻¹ s⁻¹
Kd [11]: 0.05 nM
koff [11]: 5.6e-05 s⁻¹
kon [11]: 1.1e+06 M⁻¹ s⁻¹
Kd (recombinant rat Ang2-FLD): 0.14 nM
koff (recombinant rat Ang2-FLD): 7.2e-05 s⁻¹
kon (recombinant rat Ang2-FLD): 510000 M⁻¹ s⁻¹
B5: VHH 00938 (VHH, not shown: small tags and cut ends)
VHH: B4 VHH with A24V, F27I, F106Y, L113I
notes: Cycle 3 variant of 28D10 on the 00908 backbone
